Reference: paper PMC6778195

B1: unnamed (parent)
chain 1: PCVVGGQADTIYPAIANQMAHQMHEDAQTEASKRGLAKLRADAKQGIYKKNRKPQELSNICNITLQHSNDSRNGNNGGACTGKDGNNERFKIGTEWKIGEKVETTDTDAYIPPRRQHMCTSNLENLNVSWVTEDGKAIHSLLGDVQLAAKMDADEIIKRYKKHNTLTDPIQQKDQESICRAVRYSFADLGDIIRGRDLWEHGDQTKLQGHLQIIFGKIKEEIKKKHPGINGNDKYKGDEKNNPPYKQLREDWWEANRHQVWRAMQCELKNLKKSNGDCHYNSRGTPLDDYIPQRLRWMVEWAEWFCKMQSQEYDKLMKQCSQCMSKGGDCRKGDVNCTSCEQACEEYKKKIKKWEKQWNKIKDKYEELYLQAKIAFAGTSFGGGDRDYQQMVHFFKELQKVTGDTTLGDTTSPYSTAAGYIHQEGHVDECTEQTQFCKNRNGNTASGKEDDNYTFKDPPPKYANACKCD
chain 2: QTSVSPSKVILPRGGSVLVTCSTSCDQPKLLGIETPLPKKELLLPGNNRKVYELSNVQEDSQPMCYSNCPDGQSTAKTFLTVYWTPERVELAPLPSWQPVGKNLTLRCQVEGGAPRANLTVVLLRGEKELKREPAVGEPAEVTTTVLVRRDHHGANFSCRTELDLRPQGLELFENTSAPYQLQTFVLPATPPQLVSPRVLEVDTQGTVVCSLDGLFPVSEAQVHLALGDQRLNPTVTYGNDSFSAKASVSVTAEDEGTQRLTCAVILGNQSQETLQTVTIYSFPAPNVILTKPEVSEGTEVTVKCEAHPRAKVTLNGVPAQPLGPRAQLLLKATPEDNGRSFSCSATLEVAGQLIHKNQTRELRVLYGPRLDERDCPGNWTWPENSQQTPMCQAWGNPLPELKCLKDGTFPLPIGESVTVTRDLEGTYLCRARSTQGEVTRKVTVNVLSPRYE

Variants of: B1
Experiment: SPR
Details: with partner chain of the complex shown; top curve of the dilution series (250 nM), read at end of injection (~250 s); parent: 260; read off a plot

Row | Variant | response
1 | chain 1 Q389A | 280 RU
2 | chain 1 E366A | 190 RU
3 | chain 1 L407D | 220 RU
4 | chain 1 G382A G383A G384A | 260 RU
5 | chain 1 L370D | 70 RU
6 | chain 1 G382A G383A | 280 RU
7 | chain 1 N242A | 270 RU
8 | chain 1 G383A | 270 RU
9 | chain 1 N241A | 280 RU
